Data taken from paper PMC5548637 (International journal of biological macromolecules, 2017).

Biological target: the molecule itself
Assay: AUC

B1: TBC1D4 RabGAP-CTR1 (TBC1D4 865-1299) with His6-tag (domain or fragment, human, UniProt O60343 865-1298, looked up)
chain: ASRDELQSRKVKLDYEEVGACQKEVLITWDKKLLNCRAKIRCDMEDIHTLLKEGVPKSRRGEIWQFLALQYRLRHRLPNKQQPPDISYKELLKQLTAQQHAILVDLGRTFPTHPYFSVQLGPGQLSLFNLLKAYSLLDKEVGYCQGISFVAGVLLLHMSEEQAFEMLKFLMYDLGFRKQYRPDMMSLQIQMYQLSRLLHDYHRDLYNHLEENEISPSLYAAPWFLTLFASQFSLGFVARVFDIIFLQGTEVIFKVALSLLSSQETLIMECESFENIVEFLKNTLPDMNTSEMEKIITQVFEMDISKQLHAYEVEYHVLQDELQESSYSCEDSETLEKLERANSQLKRQNMDLLEKLQVAHTKIQALESNLENLLTRETKMKSLIRTLEQEKMAYQKTVEQLRKLLPADALVNCDLLLRDLNCNPNNKAKIGNKP
  stoichiometry N: 2

B2: TBC1D4 CTR (TBC1D4 1192-1299) with His6-tag (domain or fragment, human, UniProt O60343 1192-1298, looked up)
chain: SCEDSETLEKLERANSQLKRQNMDLLEKLQVAHTKIQALESNLENLLTRETKMKSLIRTLEQEKMAYQKTVEQLRKLLPADALVNCDLLLRDLNCNPNNKAKIGNKP
  stoichiometry N: 2
